± gives the standard deviation of the averaged measurements.
System: ATP
Experiment: switch fluorescence ratio, 500 uM ATP over buffer (Cy3 cluster intensity, sum of 5 cycles each) (fold (ratio)); higher = stronger signal-on switching upon ATP binding; sequences stand for … in TCGTCGGCAGCGTCAGATGTGTATAAGAGACAGTTTTTTTTTTTTTTTTTTTTTTTTT…TC
Details: aptamer strand: ATP DNA aptamer (quencher-CACCTGGGGGAGTATTGCGGAGGAAGG + anchor), 100 nM annealed; ATP concentration: 500 uM
Outline: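 The fluorescence ratio divides summed target-cycle Cy3 intensity by summed buffer-cycle Cy3 intensity for each cluster and is averaged per switch-domain sequence. Cy3-labelled switching-strand clusters on a modified Illumina MiSeq flow-cell were annealed to 100 nM quencher-labelled ATP aptamer, then imaged in selection buffer and again after 15 min with 500 uM ATP at 22 °C. Five such cycles were run, with NaOH stripping and re-annealing between them, and clusters outside 100-1000 RFU were excluded.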
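Also: ATP exposure 15 min at 22 °C before imaging.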

TTTATGGATT
switch fluorescence ratio: 1.006 ± 0.01

TTTATGGGAA
switch fluorescence ratio: 1.01 ± 0.026

TTTATGGGGA
switch fluorescence ratio: 1 ± 0.02

TTTATGGTTC
switch fluorescence ratio: 0.992 ± 0.01

TTTATGTCGG
switch fluorescence ratio: 1.004 ± 0.0091

TTTATGTCTA
switch fluorescence ratio: 1.02 ± 0.024

TTTATGTGTT
switch fluorescence ratio: 0.984 ± 0.021

TTTATGTTTT
switch fluorescence ratio: 0.965 ± 0.041

TTTATTATGA
switch fluorescence ratio: 1.01 ± 0.026

TTTATTCGAA
switch fluorescence ratio: 0.99821 ± 0.00092

TTTATTCTTT
switch fluorescence ratio: 1 ± 0.021

TTTATTGACT
switch fluorescence ratio: 1.03 ± 0.013

TTTATTGCGG
switch fluorescence ratio: 1.01 ± 0.043

TTTATTGGAC
switch fluorescence ratio: 1.01 ± 0.078

TTTATTGGCG
switch fluorescence ratio: 1.01 ± 0.035

TTTATTGTCC
switch fluorescence ratio: 0.975 ± 0.034

TTTATTGTT
switch fluorescence ratio: 0.99 ± 0.018

TTTATTTATA
switch fluorescence ratio: 1.01 ± 0.025

TTTATTTCTA
switch fluorescence ratio: 0.981 ± 0.013

TTTATTTGAA
switch fluorescence ratio: 1.01 ± 0.025

TTTATTTGGT
switch fluorescence ratio: 1.03 ± 0.041

TTTATTTTGT
switch fluorescence ratio: 1 ± 0.038

TTTATTTTTC
switch fluorescence ratio: 1.04 ± 0.046

TTTCAAAACA
switch fluorescence ratio: 1.0474 ± 0.00015

TTTCAAATTC
switch fluorescence ratio: 0.981 ± 0.026

TTTCAAGTGG
switch fluorescence ratio: 1.014 ± 0.0096

TTTCACACGG
switch fluorescence ratio: 1.04 ± 0.066

TTTCACCTTT
switch fluorescence ratio: 1.02 ± 0.047

TTTCAGAAAG
switch fluorescence ratio: 0.986 ± 0.011

TTTCAGACAT
switch fluorescence ratio: 1.016 ± 0.008

TTTCAGAGAA
switch fluorescence ratio: 1.04 ± 0.049

TTTCAGAGGG
switch fluorescence ratio: 0.992 ± 0.011

TTTCAGCCGG
switch fluorescence ratio: 1.04 ± 0.034

TTTCAGGGTT
switch fluorescence ratio: 1.03 ± 0.072

TTTCAGTCAT
switch fluorescence ratio: 0.978 ± 0.015

TTTCAGTTTT
switch fluorescence ratio: 1.1 ± 0.22

TTTCATGATG
switch fluorescence ratio: 0.998 ± 0.02

TTTCATGGCG
switch fluorescence ratio: 0.97893 ± 0.0002

TTTCATTAAA
switch fluorescence ratio: 0.994 ± 0.033

TTTCATTACT
switch fluorescence ratio: 1.04 ± 0.065

TTTCATTTAT
switch fluorescence ratio: 0.986 ± 0.021

TTTCATTTCT
switch fluorescence ratio: 1 ± 0.018

TTTCCAAAAT
switch fluorescence ratio: 0.991 ± 0.026

TTTCCAGACT
switch fluorescence ratio: 0.968 ± 0.019

TTTCCATAAG
switch fluorescence ratio: 1.007 ± 0.0022

TTTCCATTAT
switch fluorescence ratio: 1.01 ± 0.058

TTTCCATTTT
switch fluorescence ratio: 1.02 ± 0.074

TTTCCCGAGG
switch fluorescence ratio: 1.51 ± 0.55

TTTCCGGTGC
switch fluorescence ratio: 1.7 ± 0.13

TTTCCTCTCG
switch fluorescence ratio: 1.54 ± 0.76

TTTCCTTTTT
switch fluorescence ratio: 1.15 ± 0.36

TTTCGAATTC
switch fluorescence ratio: 1.006 ± 0.0084

TTTCGACAAG
switch fluorescence ratio: 1.07 ± 0.1

TTTCGAGCGT
switch fluorescence ratio: 1.01 ± 0.029

TTTCGCGGTC
switch fluorescence ratio: 1.9 ± 1.1

TTTCGGAGCC
switch fluorescence ratio: 1.16 ± 0.24

TTTCGGCGGT
switch fluorescence ratio: 1.02 ± 0.021

TTTCGGGGAA
switch fluorescence ratio: 1.06 ± 0.1

TTTCGGGGGG
switch fluorescence ratio: 1.02 ± 0.037

TTTCGGTCAC
switch fluorescence ratio: 0.983 ± 0.0036

TTTCGGTCGT
switch fluorescence ratio: 1.03 ± 0.074

TTTCGGTTAT
switch fluorescence ratio: 1.02 ± 0.021

TTTCGGTTTG
switch fluorescence ratio: 1.02 ± 0.047

TTTCGTACTC
switch fluorescence ratio: 1.09 ± 0.13

TTTCGTATGT
switch fluorescence ratio: 0.997 ± 0.05

TTTCGTCATC
switch fluorescence ratio: 1.66 ± 0.91

TTTCGTTTCT
switch fluorescence ratio: 1.03 ± 0.024

TTTCTAGTTT
switch fluorescence ratio: 0.984 ± 0.026

TTTCTATGGT
switch fluorescence ratio: 1.003 ± 0.0073

TTTCTCAGTT
switch fluorescence ratio: 0.977 ± 0.02

TTTCTCGTTT
switch fluorescence ratio: 1.006 ± 0.0072

TTTCTGCAGT
switch fluorescence ratio: 1.27 ± 0.38

TTTCTTATTC
switch fluorescence ratio: 0.983 ± 0.022

TTTCTTATTT
switch fluorescence ratio: 1 ± 0.013

TTTCTTCCCT
switch fluorescence ratio: 1.13 ± 0.11

TTTCTTCTTT
switch fluorescence ratio: 1.02 ± 0.044

From the supplement of paper PMC10126150
